Source: patent US20100254977A1

B1: mouse mAb 17E6 (antibody, mouse IgG1, V domains shown)
VH: EPKSSDKTHTCPPCP
VL: WGQGTTVTVSS

Columns and labels:
[1] = target: human αv-integrins (human) (UniProt P06756); assay: cell-based or functional assay
[2] = target: human αv-integrins (human), P06756; assay: cell-based or functional assay
Sequence of human αv-integrins (human), P06756 (P06756 31-1048): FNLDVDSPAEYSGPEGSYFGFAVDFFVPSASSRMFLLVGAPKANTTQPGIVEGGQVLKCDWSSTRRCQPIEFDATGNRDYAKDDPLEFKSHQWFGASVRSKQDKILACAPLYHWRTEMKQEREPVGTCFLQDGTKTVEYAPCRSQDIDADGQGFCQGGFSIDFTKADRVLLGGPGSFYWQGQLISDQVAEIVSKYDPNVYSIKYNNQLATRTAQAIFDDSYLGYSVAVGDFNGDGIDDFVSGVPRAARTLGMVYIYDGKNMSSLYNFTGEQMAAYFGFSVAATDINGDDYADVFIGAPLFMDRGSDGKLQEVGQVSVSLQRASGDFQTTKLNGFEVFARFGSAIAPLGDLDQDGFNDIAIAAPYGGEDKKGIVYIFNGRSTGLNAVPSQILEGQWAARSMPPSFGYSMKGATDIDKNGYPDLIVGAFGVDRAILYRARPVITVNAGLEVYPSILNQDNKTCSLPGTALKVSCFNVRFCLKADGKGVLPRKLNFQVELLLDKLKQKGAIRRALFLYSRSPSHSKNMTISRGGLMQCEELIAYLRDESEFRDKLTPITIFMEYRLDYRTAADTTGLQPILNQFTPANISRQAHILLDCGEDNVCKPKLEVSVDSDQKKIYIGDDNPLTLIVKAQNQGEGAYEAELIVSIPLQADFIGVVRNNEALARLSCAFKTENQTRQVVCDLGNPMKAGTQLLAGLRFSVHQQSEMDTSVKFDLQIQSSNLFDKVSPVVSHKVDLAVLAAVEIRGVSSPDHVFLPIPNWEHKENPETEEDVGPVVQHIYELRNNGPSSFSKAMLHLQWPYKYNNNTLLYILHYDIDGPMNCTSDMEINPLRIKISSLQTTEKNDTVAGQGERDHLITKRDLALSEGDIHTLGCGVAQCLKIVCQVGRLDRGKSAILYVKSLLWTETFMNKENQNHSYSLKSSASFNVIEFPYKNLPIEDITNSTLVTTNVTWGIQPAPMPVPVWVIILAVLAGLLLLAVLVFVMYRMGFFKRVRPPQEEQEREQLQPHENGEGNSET

Sequence of human αv-integrins (human) (P06756 31-1048): as above

Row | Molecule | EC50, blocking of VEGF-induced migration of human endothelial cells on vitronectin [1] | EC50, blocking of tumor cell adhesions [1] | EC50, inhibition of human endothelial cell adhesion to vitronectin [1] | IC50, growth of HUVEC on vitronectin (Alamar Blue) [1] | IC50, growth of HUVEC on vitronectin (Alamar Blue) [2]
1 | DI-17E6 (antibody) | 50 nM | 0.1 to 50 nM | 10 nM | 4 ng/mL | 
2 | B1 |  |  |  |  | 5 ng/mL
